Assay results as given in article PMC7503470 (Molecules, 2020).

Tests used:
in vivo = conditions: male, NOD-scid IL2Rg^null (NSG), mouse, iv, total radioactivity
Protocol: All imaging and biodistribution studies were performed using male NOD-scid IL2Rg^null (NSG) mice and conducted according to the guidelines established by the Canadian Council on Animal Care and approved by Animal Ethics Committee of the University of British Columbia. For tumor inoculations, mice were anesthetized by inhalation with 2% isoflurane in oxygen and implanted subcutaneously with 5 × 10^6 LNCaP cells below the left shoulder. Imaging and biodistribution studies were performed only after tumors grew to 5−8 mm in diameter over a period of 5−7 weeks.
For ex vivo biodistribution studies, mice were injected with ~1.5−3 MBq of the ^68Ga-labeled tracer. At 1 h p.i., mice were euthanized, blood was drawn from heart, and organs/tissues of interest were collected, rinsed with PBS, blotted dry, weighed, and counted using an automated gamma counter. The uptake in each organ/tissue was normalized to the injected dose and expressed as the percentage of the injected dose per gram of tissue (%ID/g).
Statistical analyses were performed by Student’s t-test using the Microsoft (Redmond, WA, USA) Excel software. The unpaired, two-tailed test was used to compare tissue uptake and tumor-to-background (muscle, blood and kidney) contrast ratios of [^68Ga]Ga-DOTA-AmBz-MVK(HTK01166)-OH and [^68Ga]Ga-DOTA-AmBz-M(O)VK(HTK01166)-OH. The unpaired, one-tailed test was used to compare kidney uptake of [^68Ga]Ga-DOTA-AmBz-MVK(HTK01166)-OH (or [^68Ga]Ga-DOTA-AmBz-M(O)VK(HTK01166)-OH) with that of the previously reported [^68Ga]Ga-HTK01166 [15]. The difference was considered statistically significant when the p value was <0.05.

mice = conditions: mouse, in vivo
Protocol: Radio-metabolites of [^68Ga]Ga-DOTA-AmBz-MVK(Ac)-OH and [^68Ga]Ga-DOTA-AmBz-MVK(HTK01166)-OH in mouse blood and urine samples were analyzed by HPLC. The blood samples were collected at 5 min p.i. due to the fast excretion nature of the small radio-metabolites, whereas the urine samples were collected at 15 min p.i. to allow sufficient time for the accumulation of enough radio-metabolites for analysis.
Male NSG mice were injected with 3–17 MBq of the ^68Ga-labeled peptide. For blood profiling, mice were anesthetized with 2% isoflurane in O2 and euthanized by CO2 inhalation at 5 min p.i. Blood draw was then performed by cardiac puncture and blood was collected in an eppendorf tube with equal volume of CH3CN. Each tube was then centrifuged at RT for 10–15 min and the resulting supernatant was collected and analyzed using the analytical HPLC column to identify and quantify radio-metabolite(s) in blood. For the purpose of urine profiling, urine was collected after euthanizing the mice at 15 min p.i. The urine samples were also collected and analyzed using the analytical HPLC column to identify and quantify radio-metabolite(s) in urine.

[1] = brush border membrane vesicles (BBMVs) extracted from mouse kidneys; conditions: 37 °C, up to 1 h
[2] = brush border membrane vesicles (BBMVs) extracted from mouse kidneys, control well with phosphoramidon; conditions: 37 °C, up to 1 h
[3] = mouse blood samples collected at 5 min p.i.; conditions: Male NSG mice, up to 5 min p.i.
[4] = mouse urine samples collected at 15 min p.i.; conditions: Male NSG mice, up to 15 min p.i.
[5] = brush border membrane vesicles (BBMVs) extracted from mouse kidneys, with phosphoramidon; conditions: 37 °C, up to 1 h

cleaved bond [3] | Compound | tissue uptake at 1 h (in vivo; Adrenal Glands uptake) [%ID/g] | tissue uptake at 1 h (in vivo; Bone uptake) [%ID/g] | tissue uptake at 1 h (in vivo; Brain uptake) [%ID/g] | tissue uptake at 1 h (in vivo; Fat uptake) [%ID/g] | tissue uptake at 1 h (in vivo; Heart uptake) [%ID/g] | tissue uptake at 1 h (in vivo; Intestines uptake) [%ID/g] | tissue uptake at 1 h (in vivo; Kidneys uptake) [%ID/g] | tissue uptake at 1 h (in vivo; LNCaP Tumor uptake) [%ID/g] | tissue uptake at 1 h (in vivo; Liver uptake) [%ID/g] | tissue uptake at 1 h (in vivo; Lungs uptake) [%ID/g] | tissue uptake at 1 h (in vivo; Muscle uptake) [%ID/g] | tissue uptake at 1 h (in vivo; Pancreas uptake) [%ID/g] | tissue uptake at 1 h (in vivo; Spleen uptake) [%ID/g] | tissue uptake at 1 h (in vivo; Stomach uptake) [%ID/g] | tissue uptake at 1 h (in vivo; Tail uptake) [%ID/g] | tissue uptake at 1 h (in vivo; Testes uptake) [%ID/g] | tissue to tissue ratio at 1 h (in vivo; Tumor/Blood uptake ratio) | tissue to tissue ratio at 1 h (in vivo; Tumor/Kidney uptake ratio) | tissue to tissue ratio at 1 h (in vivo; Tumor/Muscle uptake ratio) | also measured
 | CC(C)[C@H](NC(=O)[C@H](CC[S+](C)[O-])NC(=O)c1ccc(CNC(=O)CN2CCN(CC(=O)O)CCN(CC(=O)O)CCN(CC(=O)O)CC2)cc1)C(=O)N[C@@H](CCCCNC(=O)CCc1cn(CC(=O)NC[C@H]2CC[C@H](C(=O)N[C@H](C(=O)NCCCC[C@H](NC(=O)N[C@@H](CCC(=O)O)C(=O)O)C(=O)O)C3Cc4ccccc4C3)CC2)nn1)C(=O)O (stereo partly shown) [[^68Ga]Ga-DOTA-AmBz-M(O)VK(HTK01166)-OH, metal not drawn] | 4.33 ± 2.07 | 0.11 ± 0.05 | 0.03 ± 0.01 | 0.52 ± 0.13 | 0.23 ± 0.05 | 0.29 ± 0.1 | 89.7 ± 19.3 | 4.06 ± 1.27 | 0.32 ± 0.06 | 0.88 ± 0.1 | 0.22 ± 0.05 | 0.56 ± 0.24 | 11.5 ± 2.7 | 0.13 ± 0.05 | 1.86 ± 2.44 | 0.31 ± 0.07 | 6.83 ± 2.81 | 0.04 ± 0.02 | 17.9 ± 7.57 | 
 | CSCC[C@H](NC(=O)c1ccc(CNC(=O)CN2CCN(CC(=O)O)CCN(CC(=O)O)CCN(CC(=O)O)CC2)cc1)C(=O)N[C@H](C(=O)N[C@@H](CCCCNC(=O)CCc1cn(CC(=O)NC[C@H]2CC[C@H](C(=O)N[C@H](C(=O)NCCCC[C@H](NC(=O)N[C@@H](CCC(=O)O)C(=O)O)C(=O)O)C3Cc4ccccc4C3)CC2)nn1)C(=O)O)C(C)C [[^68Ga]Ga-DOTA-AmBz-MVK(HTK01166)-OH, metal not drawn] | 5.59 ± 4.02 | 0.16 ± 0.04 | 0.02 | 0.72 ± 0.33 | 0.25 ± 0.12 | 0.4 ± 0.1 | 104 ± 12.2 | 3.98 ± 0.87 | 0.58 ± 0.08 | 0.96 ± 0.12 | 0.21 ± 0.05 | 0.6 ± 0.22 | 8.87 ± 2.63 | 0.11 ± 0.02 | 1.03 ± 0.82 | 0.36 ± 0.06 | 7.24 ± 1.16 | 0.04 ± 0.01 | 19.9 ± 5.41 | unidentified radio-metabolite in urine (mice): no presence
 | [^68Ga]Ga-DOTA-AmBz-M(O)VK(HTK01166)-OH |  |  |  |  |  |  |  |  |  |  |  |  |  |  |  |  |  |  |  | not cleaved [1]: 94% remaining intact after 1 h; not cleaved [2]: 99.5% remaining intact after 1 h
Met-Val, minor, 5 min p.i. | [^68Ga]Ga-DOTA-AmBz-MVK(Ac)-OH |  |  |  |  |  |  |  |  |  |  |  |  |  |  |  |  |  |  |  | cleaved bond [1]: Met-Val, major, 1 h; cleaved bond [4]: Met-Val, major, 15 min p.i.; cleaved bond [2]: Met-Val, 1 h
Met-Val, 5 min p.i. | [^68Ga]Ga-DOTA-AmBz-MVK(HTK01166)-OH |  |  |  |  |  |  |  |  |  |  |  |  |  |  |  |  |  |  |  | cleaved bond [1]: Met-Val, 1 h; cleaved bond [4]: Met-Val, 15 min p.i.; not cleaved [5]: ~95% intact after 1 h
